Columns and labels:
Experiment in all cases: initial velocity, spectrophotometric DTP/DTNB thiol assay
Assay type in all cases: biochemical, Escherichia coli
[1] = tested on: CC(=O)SCCNC(=O)CCNC(=O)[C@H](O)C(C)(C)COP(=O)(O)OP(=O)(O)OC[C@H]1O[C@@H](n2cnc3c(N)ncnc32)[C@H](O)[C@@H]1OP(=O)(O)O; details: fixed saturating kanamycin B, optimum pH 5.6, room temperature
[2] = tested on: NC[C@@H]1O[C@H](O[C@H]2[C@@H](O)[C@H](O[C@@H]3[C@@H](O)[C@H](N)C[C@H](N)[C@H]3O[C@H]3O[C@H](CN)[C@@H](O)[C@H](O)[C@H]3N)O[C@@H]2CO)[C@H](N)[C@@H](O)[C@@H]1O; details: fixed saturating AcCoA, optimum pH 5.6, room temperature
[3] = tested on: NC[C@H]1O[C@H](O[C@H]2[C@H](O)[C@@H](O[C@H]3O[C@H](CO)[C@@H](O)[C@H](N)[C@H]3O)[C@H](N)C[C@@H]2N)[C@H](N)[C@@H](O)[C@@H]1O; details: fixed saturating AcCoA, optimum pH 5.6, room temperature

For “AAC(6′)-Ib-wt (Escherichia coli; R102W/Y179D)”, the Km [1] was 35 ± 2 µM, the kcat [1] was 2.32 ± 0.0667 s⁻¹ and the kcat/Km [1] was 66700 M⁻¹ s⁻¹. For the same substance, the Km [2] was 20 ± 1 µM, the kcat [2] was 3.08 ± 0.05 s⁻¹ and the kcat/Km [2] was 150000 M⁻¹ s⁻¹. It also gave a Km [3] of 0.27 ± 0.01 µM, a kcat [3] of 2.27 ± 0.05 s⁻¹ and a kcat/Km [3] of 8.38e+06 M⁻¹ s⁻¹.
